Data as given in US20230348564A1, “ANTI-CANCER PROTEINS” (UNICHEM LABORATORIES LTD, priority 2020, published 2023).

Legend:
IOMM-Lee cell line = experiment: cell cycle distribution analysis by Propidium Iodide (PI) staining; type: cell-based, Human; conditions: 1 μg/mL-500 μg/mL
Experimental: The evaluation of pro-apoptotic effect of SEQ ID NO. 2 in brain tumor cell lines U251MG & IOMM Lee was conducted. The cells were treated with SEQ ID NO. 2 at various concentrations around IC50 values. Resultant effect on apoptosis was determined via externalization of Phosphatidyl Serine (PS) on cell membrane by Annexin-V staining, mitochondrial membrane depolarization by JC-1 staining and cell cycle distribution analysis by Propidium Iodide (PI) staining. Increase in apoptotic markers in U251MG & IOMM-Lee cell lines reflected the pro-apoptotic potential of SEQ ID NO. 2 in brain tumor. • Externalization of PS on cell membrane by Annexin-V staining on U251MG cell line: SEQ ID NO.

[1] = tested on: HT-29 (Human Colorectal adenocarcinoma); experiment: Calcein AM cytotoxicity assay; conditions: 48h
Experimental: (§1) All the cancer cell lines were procured from National Centre for Cell Science, Pune (India). The cell lines were maintained under conditions as described in Table 21 below. The cell lines were sub-cultured by trypsinization followed by splitting the cell suspension into fresh flasks and supplementing with fresh culture medium.
(§2) All the cell lines were grown in specified media at 37° C. with 95% Humidity and […].
(§3) The cells were trypsinized, counted by Trypan blue method in Neuebauer's Chamber and plated in wells of flat bottom 96-well plate (dark walled plate, flat bottom) at the density corresponding to 10×10^3 cells/well/180 μl medium.
(§4) Following overnight incubation, the cells were treated with test item (20 μL) at concentrations ranging from 2.5-80 μg/mL, so that the total volume in each well is 200 μL.
(§5) The cells were incubated with the test items or positive control for a time period of 48h. Following incubation, the cell cytotoxicity was estimated using Calcein AM Cell Viability Assay Kit from R&D systems (Cat No. 4892-010-K).
(§6) Fluorescence was measured at 485 nm (excitation/528 run (emission) spectra using Synergy HT micro plate reader.
(§7) Percentage cytotoxicity wrt untreated cells was calculated using formula:
(§8) Cytotoxicity=[(RFUuntreated−RFUsample)/RFUuntreated]*100
(§9) RFU: relative fluorescence units
(§10) IC50 value was calculated using Graph-Pad Prism version 4.01 software.

[2] = tested on: Human Primary mammary epithelial (HMEC) cells; experiment: Calcein AM cytotoxicity assay; conditions: 48h
Experimental: as §1, §2, §3, §4, §5, §6, §7, §8, §9, §10

[3] = tested on: KB (Human cervical carcinoma); experiment: Calcein AM cytotoxicity assay; conditions: 48h
Experimental: as §1, §2, §3, §4, §5, §6, §7, §8, §9, §10

[4] = tested on: MCF-10A (Human mammary epithelial cells); experiment: Calcein AM cytotoxicity assay; conditions: 48h
Experimental: as §1, §2, §3, §4, §5, §6, §7, §8, §9, §10

[5] = tested on: MCF-7 (Human breast adenocarcinoma); experiment: Calcein AM cytotoxicity assay; conditions: 48h
Experimental: as §1, §2, §3, §4, §5, §6, §7, §8, §9, §10

[6] = tested on: PBMCs (Peripheral blood mononuclear cells); experiment: Calcein AM cytotoxicity assay; conditions: 48h
Experimental: as §1, §2, §3, §4, §5, §6, §7, §8, §9, §10

[7] = tested on: PC-3 (Human Prostate Cancer); experiment: Calcein AM cytotoxicity assay; conditions: 48h
Experimental: as §1, §2, §3, §4, §5, §6, §7, §8, §9, §10

[8] = tested on: SK-Mel-28 (Human melanoma); experiment: Calcein AM cytotoxicity assay; conditions: 48h
Experimental: as §1, §2, §3, §4, §5, §6, §7, §8, §9, §10

[9] = tested on: SW620 (Human Colorectal adenocarcinoma); experiment: Calcein AM cytotoxicity assay; conditions: 48h
Experimental: as §1, §2, §3, §4, §5, §6, §7, §8, §9, §10

[10] = tested on: SiHa (Human cervix squamous cell carcinoma); experiment: Calcein AM cytotoxicity assay; conditions: 48h
Experimental: as §1, §2, §3, §4, §5, §6, §7, §8, §9, §10

[11] = tested on: THP-1 (Human acute monocytic leukemia); experiment: Calcein AM cytotoxicity assay; conditions: 48h
Experimental: as §1, §2, §3, §4, §5, §6, §7, §8, §9, §10

mechanistic biomarkers = experiment: modulation of mechanistic biomarkers (summary); type: cell-based
From the text: The effect of modulation of mechanistic biomarkers by recombinant lectin having the amino acid sequence of SEQ ID NO.2 is summarized as below: • increased levels of HGF, which binds to its receptor C-Met, and then acts on MAPK, • activated ATF-2 which is a tumor suppressor and acts via inducing apoptosis, • increased expression of c-kit, which is receptor for SCF, this acts downstream on MAPK, • increased the expression of JNK and inhibits p53, which activates AFT-2 resulting in apoptosis, • stimulated VEGF, VEGF-A and VEGFR2 expression, which activates Ras-Raf pathway, • inhibited expression of EGF, which binds to EGFR and exerts anticancer effect via Ras-Raf pathway or PKC, • stimulated Her-2, which activates Ras-Raf-MEK1-MAPK-ERK activation, • increased ERK and MEK-1 levels, which activated p90RSK and MMPs expression. ERK also acts via stat-3 and NF-KB, • stimulated GMCSF and IL-6 expression, which act via JAK-STAT pathway and activates NF-KB, • activated IL-4R expression, which connects to JAK-STAT pathway. IL-4R also acts via PI3K-Akt arm, • increased IL-8 levels, which acts via PI-3K-Akt-FOX3 arm. Akt also acts via Stat-3-NF-KB arm, where SEQ ID NO. 2 exerted an increase in Stat-3, • increased expression of Leptin, which binds to its receptor Leptin-R and acts on ERK pathway, • increased levels of cytokines (GMCSF, IL-6 and IL-8) may also interact with the immune system in tumor microenvironment to mount anticancer immunoprotective effect, • activated of TNF-α which connects to JNK pathway, • increased levels of endoglin-1 expression, which is a receptor for TGF-β. […] Binding to Tie-2 regulates PI3k pathway, • activation of Kallikrien-3 & Kallikrien-5 that acts as act a tumor suppressor, via induction of apoptosis, • activation of TRAIL & TRAILR2 causes apoptosis primarily in tumor cells, by binding to certain death receptors, • activation of Osteopontin (PON) which binds to receptors αVβ3 and CD44 and acts via Akt pathway, • inhibited Galectin-1 which either acts via Ras-Raf pathway or PI3k-Akt pathway.

Astrocytoma (U87MG) = experiment: cytotoxicity in Brain Tumor Cell lines by MTT assay; conditions: 72 h

B1: SEQ ID NO. 2: recombinant lectin; variant of the S. rolfsii lectin amino acid sequence (reported as Rec-2 in WO 2010/095143) (protein)
chain: TYKITVRVYQTNPDAFFHPVEKTVWKYANGGTWTITDDQHVLTMGGSGTSGTLRFHADNGESFTATFGVHNYKRWCDIVTNLAADETGMVINQQYYSQKNREEARERQLSNYQVKNAKGRNFQIVYTEAEGNDLHANLIIG
modifications: In vitro synthesis
B1 was tested, and the “increase in apoptotic population; Sub (G0/G1) as compared to Control (Untreated)” value (IOMM-Lee cell line) was 1.1-35.3 fold, the IC50 [1] was 42.0 µg/mL and the IC50 [2] was greater than 80 µg/mL. For the same molecule, the IC50 [3] was 18.4 µg/mL, the IC50 [4] was greater than 80 µg/mL and the IC50 [5] was greater than 80 µg/mL. It also gave an IC50 [6] greater than 80 µg/mL, an IC50 [7] greater than 80 µg/mL and an IC50 [8] greater than 80 µg/mL. It also gave an IC50 [9] greater than 80 µg/mL, an IC50 [10] greater than 80 µg/mL and an IC50 [11] greater than 80 µg/mL. For the same molecule, the ATF-2 (mechanistic biomarkers) was “activated”, the “Angiopoietin-1 & Angiopoietin-2” value (mechanistic biomarkers) was “activation” and the CD40L (mechanistic biomarkers) was “inhibited”. For the same molecule, the “ERK and MEK-1 levels” value (mechanistic biomarkers) was “increased”, the Fol-1 expression (mechanistic biomarkers) was “increased” and the “GMCSF and IL-6 expression” value (mechanistic biomarkers) was “stimulated”. For the same molecule, the Galectin-1 (mechanistic biomarkers) was “inhibited”, the Galectin-3 (mechanistic biomarkers) was “inhibited” and the Her-2 (mechanistic biomarkers) was “stimulated”. For the same molecule, the IL-4R expression (mechanistic biomarkers) was “activated”, the IL-8 levels (mechanistic biomarkers) was “increased” and the “Kallikrien-3 & Kallikrien-5” value (mechanistic biomarkers) was “activation”. For the same molecule, the “Osteopontin (PON)” value (mechanistic biomarkers) was “activation”, the PDGF-BB (mechanistic biomarkers) was “activation” and the Stat-3 (mechanistic biomarkers) was “increase”. For the same molecule, the TGF-alpha (mechanistic biomarkers) was “activation”, the TNF-α (mechanistic biomarkers) was “activated” and the “TRAIL & TRAILR2” value (mechanistic biomarkers) was “activation”. The “VEGF, VEGF-A and VEGFR2 expression” value (mechanistic biomarkers) was “stimulated”, the “expression of EGF” value (mechanistic biomarkers) was “inhibited” and the “expression of JNK” value (mechanistic biomarkers) was “increased”. The “expression of Leptin” value (mechanistic biomarkers) was “increased”, the expression of c-kit (mechanistic biomarkers) was “increased” and the “levels of HGF” value (mechanistic biomarkers) was “increased”. The “levels of endoglin-1 expression” value (mechanistic biomarkers) was “increased”, the p53 (mechanistic biomarkers) was “inhibits” and the “% Cytotoxicity” value (MDA-MB-231) was 60.9%. The “IC50 Value” (Astrocytoma (U87MG)) was 98.88 µg/mL.
